Laboratory results published in paper PMC10308901, “In vitro and ex vivo proteomics of Mycobacterium marinum biofilms and the development of biofilm-binding synthetic nanobodies” (mSystems, 2023).
Where a chain is given by its changes, count along the chain named.

B1: GroEL1 sybody number 5 (VHH)
VHH: QVQLVESGGGLVQAGGSLRLSCAASGFPVEHKQMRWYRQAPGKEREWVAAIESSGQYTIYADSVKGRFTISRDNAKNTVYLQMNSLKPEDTAVYYCFVGVGAGYYGQGTQVTVSA
notes: not shown: Myc, C-terminal, kept; His6, C-terminal, kept
B2: GroEL1 sybody number 9 (VHH)
VHH: QVQLVESGGGLVQAGGSLRLSCAASGLPVWQQGMTWYRQAPGKEREWVAAIDSVGAQTYYADSVKGRFTISRDNAKNTVYLQMNSLKPEDTAVYYCAVNVGARYIGQGTQVTVSA
notes: as for B1
B3: GroEL1 sybody number 1 (VHH)
VHH: QVQLVESGGGLVQAGGSLRLSCAASGFPVEQRQMYWYRQAPGKEREWVAAIQSYGKRTKYADSVKGRFTISRDNAKNTVYLQMNSLKPEDTAVYYCVVYVGGGYKGQGTQVTVSA
notes: as for B1
B4: GroEL1 sybody number 12 (VHH)
VHH: QVQLVESGGGLVQAGGSLRLSCAASGFPVTQAWMEWYRQAPGKEREWVAAIFSHGGGTFYADSVKGRFTISRDNAKNTVYLQMNSLKPEDTAVYYCNVKDTGERDNWYDYWGQGTQVTVSA
notes: as for B1
B5: GroEL1 sybody number 31 (VHH)
VHH: QVQLVESGGGSVQAGGSLRLSCAASGTIYKIYYLGWFRQAPGKEREGVAALNTFSGGTYYADSVKGRFTVSLDNAKNTVYLQMNSLKPEDTALYYCAAAYDMEGYAWPLYWWHYEYWGQGTQVTVSA
notes: also called GroEL1_SB31; not shown: Myc, C-terminal, kept; His6, C-terminal, kept
B6: GroEL1 sybody number 18 (VHH)
VHH: QVQLVESGGGLVQAGGSLRLSCAASGFPVKTKHMYWYRQAPGKEREWVAAITSIGMITAYADSVKGRFTISRDNAKNTVYLQMNSLKPEDTAVYYCNVKDWGTNRQAYDYWGQGTQVTVSA
notes: as for B1
B7: GroEL2 sybody number 10 (VHH)
VHH: QVQLVESGGGLVQAGGSLRLSCAASGFPVKHWYMHWYRQAPGKEREWVAAIQSTGSYTAYADSVKGRFTISRDNAKNTVYLQMNSLKPEDTAVYYCNVKEYGFYHASYDYWGQGTQVTVSA
notes: as for B1
B8: GroEL2 sybody number 3 (VHH)
VHH: QVQLVESGGGLVQAGGSLRLSCAASGFPVAYWEMVWYRQAPGKEREWVAAIRSTGWKTVYADSVKGRFTISRDNAKNTVYLQMNSLKPEDTAVYYCTAVYVGVHYKGQGTQVTVSA
notes: also called GroEL2_SB3; not shown: Myc, C-terminal, kept; His6, C-terminal, kept
B9: GroEL2 sybody number 11 (VHH)
VHH: QVQLVESGGGLVQAGGSLRLSCAASGFPVDSAYMWWYRQAPGKEREWVAAIESNGEYTFYADSVKGRFTISRDNAKNTVYLQMNSLKPEDTAVYYCNVKDTGAHHSYYDYWGQGTQVTVSA
notes: as for B1
B10: GroEL2 sybody number 27 (VHH)
VHH: B9 VHH with D30W, S31K, E56A, A103S, H104D, H105S, S106E, Y107N
notes: as for B1
B11: GroEL2 sybody number 1 (VHH)
VHH: QVQLVESGGGLVQAGGSLRLSCAASGFPVAITYMHWYRQAPGKEREWVAAISSTGKTTWYADSVKGRFTISRDNAKNTVYLQMNSLKPEDTAVYYCLVEVGHYYKGQGTQVTVSA
notes: as for B1
B12: GroEL2 sybody number 2 (VHH)
VHH: QVQLVESGGGLVQAGGSLRLSCAASGFPVSSSTMTWYRQAPGKEREWVAAIDSVGNETYYADSVKGRFTISRDNAKNTVYLQMNSLKPEDTAVYYCAVFVGSYYGQGTQVTVSA
notes: as for B1
B13: GroEL2 sybody number 16 (VHH)
VHH: QVQLVESGGGLVQAGGSLRLSCAASGFPVSSSTMTWYRQAPGKEREWVAAIESWGAYTWYADSVKGRFTISRDNAKNTVYLQMNSLKPEDTAVYYCNVKDYDGVADVIYDYWGQGTQVTVSA
notes: as for B1
B14: GroEL2 sybody number 32 (VHH)
VHH: QVQLVESGGGLVQAGGSLRLSCAASGFPVVSQFMEWHRQAPGKEREWVAAIDSTGYSTFYADSVKGRFTISRDNAKNTVYLQMNSLKPEDTAVYYCNVKDAGEGQEQYDYWGQGTQVTVSA
notes: as for B1
B15: GroEL2 sybody number 8 (VHH)
VHH: QVQLVESGGGLVQAGGSLRLSCAASGFPVYMSWMYWYRQAPGKEREWVAAIMSEGAGTWYADSVKGRFTISRDNAKNTVYLQMNSLKPEDTAVYYCNVKDTGSFHAQYDYWGQGTQVTVSA
notes: as for B1
B16: GroEL2 sybody number 7 (VHH)
VHH: B15 VHH with Y30N, M31D, S32A, E54M, A56F, T101R, S103K, F104E, A106F, Q107S
notes: as for B1
B17: GroEL2 sybody number 28 (VHH)
VHH: QVQLVESGGGLVQAGGSLRLSCAASGFPVDAYWMYWYRQAPGKEREWVAAIMSSGHGTWYADSVKGRFTISRDNAKNTVYLQMNSLKPEDTAVYSCNVKDKGAQAAWYDYWGQGTQVTVSA
notes: as for B1
B18: GroEL2 sybody number 9 (VHH)
VHH: B15 VHH with M31Q, E54D, A56S, T101F, S103H, F104S, H105R, A106S, Q107R
notes: also called GroEL2_SB9; not shown: Myc, C-terminal, kept; His6, C-terminal, kept
B19: GroEL2 sybody number 33 (VHH)
VHH: B15 VHH with M31Q, S32H, E54Q, K65R, T101L, S103K, F104A, H105E, A106Y, Q107N
notes: as for B1
B20: GroEL2 sybody number 22 (VHH)
VHH: B15 VHH with M31H, E54D, A56H, F104S, H105T, A106T, Q107I
notes: as for B1
B21: GroEL2 sybody number 31 (VHH)
VHH: B15 VHH with Y30W, S32E, A56D, T101F, S103Y, F104N, H105N, A106N, Q107Y
notes: as for B1
B22: GroEL2 sybody number 19 (VHH)
VHH: QVQLVESGGGLVQAGGSLRLSCAASGFPVEWLEMAWYRQAPGKEREWVAAIYSYGMETEYADSVKGRFTISRDNAKNTVYLQMNSLKPEDTAVYYCNVKDGGHAAWWYDYWGQGTQVTVSA
notes: as for B1

target: T1, Mycobacterium marinum GroEL1, recombinant (Mycobacterium marinum, UniProt B2HD10 1-539); test: BLI; settings: both partners purified
T1 construct: also called Mmr GroEL1

Row | Binder | Kd
1 | B1 | ~127 nM
2 | B2 | ~64 nM
3 | B3 | ~130 nM
4 | B4 | ~14 nM
5 | B5 | ~92 nM
6 | B6 | ~22 nM

target: T2, Mycobacterium marinum GroEL2, recombinant, biotinylated AVI-tagged form (Mycobacterium marinum, UniProt B2HQP9 1-541); test: BLI; settings: both partners purified
T2 construct: also called Mmr GroEL2; biotinylated GroEL protein

Row | Binder | Kd
7 | B7 | ~193 nM
8 | B8 | ~18 nM
9 | B9 | ~271 nM
10 | B10 | ~101 nM
11 | B11 | ~591 nM
12 | B12 | ~157 nM
13 | B13 | ~15 nM
14 | B14 | ~153 nM
15 | B15 | ~13 nM
16 | B16 | ~100 nM
17 | B17 | ~35 nM
18 | B18 | ~277 nM
19 | B19 | ~244 nM
20 | B20 | ~507 nM
21 | B21 | ~66 nM
22 | B22 | ~366 nM
